The experiment addresses human CD47 antigen (human) (UniProt Q08722). Nature of the experiment: flow cytometry on human red blood cells at the maximal binding concentration; reference Hu5F9.

As for anti-CD47 IgG4 AO-176 (antibody), the percent reduction of RBC binding with respect to Hu5F9 worked out at 80%.

The values above are taken from patent publication US20210221886A1.
